Patent publication US20240199755A1, “ANTAGONISTS AND AGONISTS OF THE TRANSFERRIN RECEPTOR-2 FOR USE IN THE TREATMENT OF DISEASES OF THE BONE” (Kymab Limited, priority 2018, published 2024)

System: BMPs-2, 4, 6 and 7
Assay: SPR binding of BMP ligands to Tfr2-ECD immobilized on the sensor chip
Procedure: For this purpose, Tfr2-ECD is immobilized on a Series S Sensor Chip C1 (GE Healthcare), by means of coupling the amino groups at 25° C. The carboxyl groups on the chip surface are activated for 7 minutes using a mixture of 196 mM 1-ethyl-3-(3-dimethylaminopropyl) carbodiimide-hydrochloride and 50 mM n-hydroxysuccinimide at a flow rate of 10 μl/min. Subsequently, 5 μg/ml Tfr2-ECD, diluted with sodium acetate buffer (pH 4.5), is injected at a flow rate of 5 μl/min up to a relative occupancy of 200 RU. Non-reacted groups are inactivated by injecting 1 M thanolamine-HCl (pH 8.5) for 7 minutes at a flow rate of 10 μl/min. In order to prepare a reference surface, the same procedure is carried out but without Tfr2-ECD being injected.
The binding assays are carried out at 37° C. at a flow rate of 30 μl/min. Each analyte is diluted by a running buffer (HBS-P, pH 7.4 together with 50 nM FeCl3). BMPs are used in a concentration of 50 nM and BMP receptors are used in a concentration of 200 nM. The binding assays are carried out by means of analyte injection for 300 s over the Tfr2-ECD surface, followed by dissociation for 1000 s. The values of the binding level are read out, relative to the baseline, 10 s before the end of the injection and are corrected with respect to the molar mass. Following the dissociation for 1000 s, the chip surface is regenerated for 60 s by means of HBS-P together with 5 M NaCl and 50 mM NaOH and is stabilized for 1000 s. The binding parameters are determined using the Biacore™ T100 evaluation software 2.03.
Tfr2-ECD, BMP-2 and BMP-4 were immobilized onto Series S Sensor Chips C1 (GE Healthcare) via its amine groups at 25° C. […]
For binding analysis, an injection of analyte for 240 s or 300 s over a Tfr2-ECD surface was followed by 1000 s dissociation. The values of the binding levels were recorded from referenced signals 10 s before the end of injection relative to baseline response. […]

B1: Tfr2-ECD: Recombinant full-length extracellular domain (aa 103-798) of murine Tfr2, His-tagged, expressed in Sf9 insect cells (protein, listed as Mus musculus)
chain: RGSCQACGDSVLVVDEDVNPEDSGRTTLYWSDLQAMFLRFLGEGRMEDTIRLTSLRERVAGSARMATLVQDILDKLSRQKLDHVWTDTHYVGLQFPDPAHANTLHWVDADGSVQEQLPLEDPEVYCPYSATGNATGKLVYAHYGRSEDLQDLKAKGVELAGSLLLVRVGITSFAQKVAVAQDFGAQGVLIYPDPSDFSQDPHKPGLSSHQAVYGHVHLGTGDPYTPGFPSFNQTQFPPVESSGLPSIPAQPISADIADQLLRKLTGPVAPQEWKGHLSGSPYRLGPGPDLRLVVNNHRVSTPISNIFACIEGFAEPDHYVVIGAQRDAWGPGAAKSAVGTAILLELVRTFSSMVSNGFRPRRSLLFISWDGGDFGSVGATEWLEGYLSVLHLKAVVYVSLDNSVLGDGKFHAKTSPLLVSLIENILKQVDSPNHSGQTLYEQVALTHPSWDAEVIQPLPMDSSAYSFTAFAGVPAVEFSFMEDDRVYPFLHTKEDTYENLHKMLRGRLPAVVQAVAQLAGQLLIRLSHDHLLPLDFGRYGDVVLRHIGNLNEFSGDLKERGLTLQWVYSARGDYIRAAEKLRKEIYSSERNDERLMRMYNVRIMRVEFYFLSQYVSPADSPFRHIFLGQGDHTLGALVDHLRMLRADGSGAASSRLTAGLGFQESRFRRQLALLTWTLQGAANALSGDVWNIDNNF
modifications: His tag
notes: Recombinant full-length extracellular domain (aa 103-798) of murine Tfr2, His-tagged, expressed in Sf9 insect cells
500 mM NaCl in running buffer
  Binding of BMPs-2, 4 and 6 to Tfr2-ECD at high salt concentrations: at a lower level
BMP ligands 50 nM, 1 mg/ml holo-Tf
  Binding of BMPs to immobilized Tfr2-ECD compared with holo-transferrin: more avidly than holotransferrin
BMP-2 vs holo-Tf
  Binding of BMP-2 to Tfr2 relative to that of holo-Tf: more than 10 fold
